Test results from patent publication US20260062464A1.
Numbering of substitutions follows the chain as printed.

B1: NDS.5 monoclonal antibody (antibody, V domains shown)
VH: QLRLQESGPGLVKPSETLSLTCTVSGGSITSSPYYWGWIRQPPGKGLEWIGSIYYSGSTYYNPSLRSRVTISLDTSMNQFSLKLSSVTAADTAVYYCAEEYYDFWRTQDWGQGTLVTVSS
VL: EIVLTQSPGTLSLSPGERATISCRASQSVSGRNLAWYQQKPGQAPRLLIYAASNRATGIPDRFSGSGSGTDFTLTISRLEPEDFAVYYCQQYGTSKTFGQGTKVEIK
B2: NDS.6 monoclonal antibody (antibody, V domains shown)
VH: QVQLVQSGPEVKKPGASVKVSCKASGYNFNRYGLTWVRQAPGQGLEWMGWISTYNSDTIYAREFRGRVTLTTDTSTRTAYMELRSLISADTAVYYCARDNVEEAFPISYYFDHWGQGTLVSVSS
VL: QSALTQPRSVSGSPGQSVTISCTGTSSDVGLYNYVSWYQHHPGKAPKFLIYDVTKRPSGVPDRFSGSKSGNTASLTISGLQAEDEADYYCCSYVGSYILVFGGGTKVTVL
B3: Fab of NDS.1 (Fab, V domains shown)
VH: QVQLRQWGAGLLKPSETLSLTCDVYGGSFNFYFWTWIRQPPGKGLEWLGEITHSGSATYIPSLKSRVTLSVDTSKGQFSLKLTSVNVADTAVYYCAGLPIDYDTVHLGYYPMDVWGQGTPVTVSS
VL: DIQMTQSPSSLSASVGDRVTITCRASQGIRNYLAWYQQKPGKVPKLLIYGASTLQSGVPSRFSGSGSGTDFSLTISSLQPEDIATYFCQEYNNAPRTFGQGTKVEIK
B4: Fab of NDS.1.1 (Fab, V domains shown)
VH: QVQIQQWGAGLLKPSDTLSLTCSVYGGSFNFYYWTWVRQPPGKGLEWLAEINHSGSINYIPSLNSRVALSVDTSKGQFSLRLSSVTAADTAVYYCTGVPIDYESLHLGYYPMDVWGQGTPVIVSS
VL: B3 VL with R30S, Y36W, K42Q, G50A, E81D, I83V, T85I, F87Y, E90K, N93S
B5: Fab of NDS.3 (Fab, V domains shown)
VH: EVQLVESGGGLVKPGGSLRLSCAASGFTFSDYSMTWIRQIPGKGLEWLSYTTSSGRPIFYADSVKGRFTMSRDNAKMSVYLQMNSLRDADSAVYYCARGDPHYIWGTYLDSWGPGTLVTVSS
VL: QSALTQPPSASGSPGQSVTISCTGTTSDFGDHNYVSWYQQRPGEAPKLIIYDVSKRPSGVPDRFSGSKSGNTASLTVSRLQADDEANYYCSSIEGSNTLLFGGGTKLTVL

Tests used:
[1] = biological target: recombinant N2 neuraminidase of A/Wisconsin/67/2005 (H3N2) (Influenza A virus A/Wisconsin/67/2005 (H3N2)); test: ELISA on plate-coated recombinant NA, absorbance 450 nm
[2] = biological target: recombinant N2 neuraminidase of A/Wisconsin/67/2005 (H3N2) (Influenza A virus A/Wisconsin/67/2005 (H3N2)); test: BLI, NA on biosensor, Fab in solution, 1:1 fit
[3] = biological target: recombinant N2 neuraminidase of A/Moscow/10/1999 (H3N2) (Influenza A virus A/Moscow/10/1999 (H3N2)); test: BLI, NA on biosensor, Fab in solution, 1:1 fit

| Binder | EC50 (read off the curve) [1] | Kd [2] | koff [2] | kon [2] | Kd [3] | koff [3] | kon [3] |
| --- | --- | --- | --- | --- | --- | --- | --- |
| B1 | 0.05 µg/mL | – | – | – | – | – | – |
| B2 | 0.2 µg/mL | – | – | – | – | – | – |
| B3 | – | 75.6 nM | 0.00431 s⁻¹ | 57000 M⁻¹ s⁻¹ | 0.217 nM | 1.16e-05 s⁻¹ | 53300 M⁻¹ s⁻¹ |
| B4 | – | 136 nM | 0.00565 s⁻¹ | 41500 M⁻¹ s⁻¹ | 8.31 nM | 0.000187 s⁻¹ | 22500 M⁻¹ s⁻¹ |
| B5 | – | 60.9 nM | 0.00527 s⁻¹ | 86500 M⁻¹ s⁻¹ | 18.9 nM | 0.000517 s⁻¹ | 27400 M⁻¹ s⁻¹ |
